# Assay results from patent publication US20060253917A1 (published 2006).
# Ends that are not written are not given here.
# T1: OsGF14-c aa 1-150 (Oryza sativa, UniProt Q6ZKC0 1-150)
# T1 construct: bait, Gal4 DBD fusion; also called PN12464; O. sativa 14-3-3 Protein Homolog GF14-c
# T1 sequence: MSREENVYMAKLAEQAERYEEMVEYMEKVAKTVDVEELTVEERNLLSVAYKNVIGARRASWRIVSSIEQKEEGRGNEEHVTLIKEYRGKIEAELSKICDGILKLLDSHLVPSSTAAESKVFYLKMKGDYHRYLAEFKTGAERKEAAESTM
# B1: OsPN29982 aa 201-300 (other)
# chain: SPVVDNADVTETKPQTELPVHVMCAEWSSQKRLKKVQLETLERVYSRTKRPTNTMISSIVQVTSLPRKTIVKWFEDRREQDGVPDHRVAFKRSLSETIAS
# notes: prey, AD fusion; also called Novel Protein PN29982
# B2: OsPN23059 aa 90-169 (other)
# chain: PRRLTFDEIQSKTYMEVKGTGTANQCPTVEGGVDSFAFKAGKYNMKKFCLEPTSFTVKAEGVAKNAPPEFQKTKLMTRLT
# notes: prey, AD fusion; also called OsContig4331
# B3: OsPN23061 aa 94-203 (other)
# chain: VITWTSPKEQVFEMPTGGAAIMREGPNLLKLARKEQCLALGTRLRSKYKINYQFYRVFPNGEVQYLHPKDGVYPEKVNAGRQGVGQNFRSIGKNVSPIEVKFTGKNVFDI
# notes: prey, AD fusion; also called Hypothetical Protein OsContig3864, Similar to H. vulgare Photosystem I Reaction Center Subunit II, Chloroplast Precursor
# B4: OsPN22874 aa 1-88 (other)
# chain: GTNPGFRVGEIRLSNRDIYFGTLLGNTPEGSGRYVWSDGCTYDGEWRRGMRHGQGKTMWPSGATYEGEYSGGYIYGEGTYTGSDNIVY
# notes: prey, AD fusion; also called Novel Protein 22874, Fragment, similar to Arabidopsis Putative Phosphatidylinositol-4-phosphate 5-kinase
# B5: OsPN30974 aa 38-178 (other)
# chain: GGYDHPGLIPGLPDEISLQILARMPRMGYLNAKMVSRSWKAAITGVELYRVRKELGVSEEWLYMLTKSDDGKLVWNAFDPVCGQWQRLPLMPGISHGGECKRGIPGLWLGDLLSAGIRVSDVIRGWLGQRDSLDRLPFCGC
# notes: prey, AD fusion; also called Novel Protein PN30974
# B6: OsBAA02730 aa 206-269 (other)
# chain: QDNGLVPIVEPEILLDGEHGIDRTFEVAQKVWAETFFYMAENNVMFEGILLKPSMVTPGAECKD
# notes: prey, AD fusion; also called PN22832; O. sativa Fructose-Bisphosphate Aldolase, Chloroplast Precursor
# B7: OsPN23059 aa 193-333 (other)
# chain: DGIDYAAVTVQLPGGERVPFLFTIKNLVATGKPESFGGPFLVPSYRGSSFLDPKGRGGSTGYDNAVALPAGGRGDEEELAKENVKNASSSTGNITLSVTKSKPETGEVIGVFESVQPSDTDLGAKVPKDVKIQGVWYAQLE
# notes: prey, AD fusion; also called OsContig4331, O. sativa Putative 33 kDa Oxygen-Evolving Protein of Photosystem II
# B8: OsPN30846 aa 1-266 (other)
# chain: APRRPSTFLNAVALGNVGAGKSAVLNSLIGHPVLPTGENGATRAPIVVDLQRDPGLSSKSIVLQIDSKSQRVSASSLRHSLQDRLSKGASSGSSRGRVEGINLKLRTSTAPPLKLVDLPGIDQRAVDDPMINEYAGHNDAILLVVIPAMQAADVASSRALRLAKDIDADGTRTVGVISKVDQAEGDAKTIACVQALLLNKGPKNLPDIEWVALIGQSVAIASAQAAGSENSLETAWNAEAETLRSILTGAPKSKLGRIALVDTIAK
# notes: prey, AD fusion; also called Novel Protein PN30846
# B9: OsBAB61062 aa 463-511 (other)
# chain: AIDTYDDHRMAMAFSLAACADVPVTIRDPGCTRKTFPNYFDVLSTFVRN
# modifications: not fully specified; cysteine pairing not given here
# notes: prey, AD fusion; also called PN22844; O. sativa 3-Phosphoshikimate 1-carboxyvinyltransferase (EPSP Synthase)
# B10: OsAAB46718 aa 82-126 (other)
# chain: SPEEWSPTGDTYVGGTTGLLIWAVTLAGLLGGGALLVYNTSALAG
# modifications: not fully specified
# notes: prey, AD fusion; also called PN22840; O. sativa Photosystem II 10 kDa Polypeptide
# B11: OsPN22858 aa 27-154 (other)
# chain: DKPTDGFSSIDEAIGALHEGKFVIAVDDESGDNEGDLVMAATLADPESIAFMIRNGSGIISVGMKEEDLTRLMIPMMSPIAEIEDISAAASTVTVDARVGISTGVSAADRAKTIFTLASPDSKPTDLR
# notes: prey, AD fusion; also called Novel Protein 22858, Fragment, similar to Arabidopsis GTP Cyclohydrolase II
# B12: OsPN22866 aa 95-305 (other)
# chain: LLALSDDLVKSNVFIEGVSHKIRRQIEELERAGGVESGALTVDGVPVDTYLTRFVWDEGKYPTMSPLKEIAGSIQSQVSKIEDDMKVRGAEYNNVRSQLNAINRKQTGSLAVRDLSNLVKPEDMVTSEHLVTLLAVVPQYSQKDWLSSYESLDTFVVPRSSKKLYEDNEYALYTVTLFAKVVDNFKVRAREKGFQVRDFEYSSEAQESRKE
# notes: prey, AD fusion; also called Novel Protein PN22866, Fragment, Similar to A. Thaliana Vacuolar ATP Synthase Subunit C
# B13: OsRCAA1 aa 68-210 (other)
# chain: DISDDQQDITRGKGFVDSLFQAPTGDGTHEAVLSSYEYLSQGLRTYDFDNTMGGFYIAPAFMDKLVVHISKNFMTLPNIKVPLILGIWGGKGQGKSFQCELVFAKMGINPIMMSAGELESGNAGEPAKLIRQRYREAADIIKK
# notes: prey, AD fusion; also called PN19842; O. sativa Ribulose Bisphosphate Carboxylase/Oxygenase Activase, Large Isoform A1
# Target: T1, OsGF14-c aa 1-150
# Assay: Y2H; input trait library
# How it was run: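 Myriad Genetics Inc. (Salt Lake City, Utah) supplied the automated, high-throughput yeast two-hybrid assay used to detect protein-protein interactions. A bait clone encoding a defined amino-acid fragment of a rice protein was screened against a rice prey library, either the input trait or the output trait library. To identify the interacting proteins, prey clones were retrieved and their encoding sequences were compared against databases by BLAST.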
row,binding result,Binder
1,binds,B1
2,binds,B2
3,binds,B3
4,binds,B4
5,binds,B5
6,binds,B6
7,binds,B7
8,binds,B8
9,binds,B9
10,binds,B10
11,binds,B11
12,binds,B12
13,binds,B13
